How the values were obtained:
[1] = target: hC3d,g (s)-Fc (Cys to Ser variant of hC3dg-Fc) (human) (UniProt P01024); test: SPR; Biacore; hC3d or C3d(g)-Fc fusions immobilised by amine coupling (94.3-96.2 RU); Fc-fusion analytes 0.195-50 nM in HBS-EP+, physiological salt, 360 s injection; steady state affinity model; apparent KD
[2] = target: native hC3d purified from human serum (human); test: as above

Question: With “hCR2 (SCR1-4)-Fc (from UniProt P20023 21-273) (Fc fusion)” as the substance, how does the Kd [1] read?
Answer: Its Kd is 2.6 nM.

Question: What about the Kd [2] of the same substance?
Answer: Its Kd is 10.6 nM.

From paper PMC5849677
